The supplement of paper PMC10065799, “High-throughput profiling of sequence recognition by tyrosine kinases and SH2 domains using bacterial peptide display” (eLife, 2023)

Legend:
[1] = tested on: AncSZ; assay: phosphorylation enrichment, bacterial display (enrichment ratio); higher = better substrate or ligand; peptides without Tyr show the background
[2] = biological target: EPHB1 (UniProt P54762); assay: as above
[3] = biological target: EPHB2 (UniProt P29323); assay: as above
[4] = biological target: FGFR1 (UniProt P11362); assay: as above
[5] = biological target: FGFR3 (UniProt P22607); assay: as above
[6] = tested on: Fer (mouse); assay: as above
[7] = biological target: Fes (UniProt P07332); assay: as above
Sequence of Fes (P07332 whole entry, looked up): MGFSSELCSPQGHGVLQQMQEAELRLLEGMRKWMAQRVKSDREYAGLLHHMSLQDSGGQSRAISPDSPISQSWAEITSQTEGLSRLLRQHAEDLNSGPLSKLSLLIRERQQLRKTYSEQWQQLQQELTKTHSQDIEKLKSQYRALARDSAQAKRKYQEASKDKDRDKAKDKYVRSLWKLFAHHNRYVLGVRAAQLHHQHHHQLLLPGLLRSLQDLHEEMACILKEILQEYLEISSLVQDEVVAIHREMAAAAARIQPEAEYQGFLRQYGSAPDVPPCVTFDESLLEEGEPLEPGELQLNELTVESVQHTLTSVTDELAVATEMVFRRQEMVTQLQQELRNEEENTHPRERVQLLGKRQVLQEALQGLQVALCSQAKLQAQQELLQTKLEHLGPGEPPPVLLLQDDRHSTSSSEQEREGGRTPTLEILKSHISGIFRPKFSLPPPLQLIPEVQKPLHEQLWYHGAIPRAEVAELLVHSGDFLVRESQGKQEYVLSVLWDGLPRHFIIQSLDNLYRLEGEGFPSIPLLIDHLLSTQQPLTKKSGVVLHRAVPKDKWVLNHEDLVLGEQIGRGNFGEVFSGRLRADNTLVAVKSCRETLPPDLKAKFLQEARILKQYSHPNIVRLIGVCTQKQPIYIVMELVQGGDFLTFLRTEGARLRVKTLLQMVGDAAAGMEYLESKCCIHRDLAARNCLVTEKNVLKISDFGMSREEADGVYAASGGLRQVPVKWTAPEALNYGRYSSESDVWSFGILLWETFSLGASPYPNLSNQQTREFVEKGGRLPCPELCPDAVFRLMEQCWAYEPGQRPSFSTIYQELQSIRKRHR

[8] = biological target: Fyn (UniProt P06241); assay: as above
Sequence of Fyn (P06241 whole entry, looked up): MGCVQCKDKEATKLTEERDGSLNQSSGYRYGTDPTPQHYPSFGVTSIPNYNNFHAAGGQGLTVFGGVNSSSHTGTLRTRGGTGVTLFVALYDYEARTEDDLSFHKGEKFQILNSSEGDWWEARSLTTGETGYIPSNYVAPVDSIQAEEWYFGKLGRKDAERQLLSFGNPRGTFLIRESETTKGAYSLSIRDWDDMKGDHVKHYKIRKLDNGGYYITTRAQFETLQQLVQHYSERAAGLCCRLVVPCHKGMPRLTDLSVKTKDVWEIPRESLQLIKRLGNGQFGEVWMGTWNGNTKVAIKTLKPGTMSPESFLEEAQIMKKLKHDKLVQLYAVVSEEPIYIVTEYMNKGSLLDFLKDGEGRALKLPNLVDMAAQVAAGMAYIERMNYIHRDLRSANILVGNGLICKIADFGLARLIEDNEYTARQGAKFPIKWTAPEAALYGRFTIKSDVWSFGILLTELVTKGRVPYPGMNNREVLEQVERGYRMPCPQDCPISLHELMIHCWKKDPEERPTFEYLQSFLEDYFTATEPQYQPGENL

[9] = biological target: Hck (UniProt P08631); assay: as above
[10] = biological target: Jak2 (UniProt O60674); assay: as above
Sequence of Jak2 (O60674 whole entry, looked up): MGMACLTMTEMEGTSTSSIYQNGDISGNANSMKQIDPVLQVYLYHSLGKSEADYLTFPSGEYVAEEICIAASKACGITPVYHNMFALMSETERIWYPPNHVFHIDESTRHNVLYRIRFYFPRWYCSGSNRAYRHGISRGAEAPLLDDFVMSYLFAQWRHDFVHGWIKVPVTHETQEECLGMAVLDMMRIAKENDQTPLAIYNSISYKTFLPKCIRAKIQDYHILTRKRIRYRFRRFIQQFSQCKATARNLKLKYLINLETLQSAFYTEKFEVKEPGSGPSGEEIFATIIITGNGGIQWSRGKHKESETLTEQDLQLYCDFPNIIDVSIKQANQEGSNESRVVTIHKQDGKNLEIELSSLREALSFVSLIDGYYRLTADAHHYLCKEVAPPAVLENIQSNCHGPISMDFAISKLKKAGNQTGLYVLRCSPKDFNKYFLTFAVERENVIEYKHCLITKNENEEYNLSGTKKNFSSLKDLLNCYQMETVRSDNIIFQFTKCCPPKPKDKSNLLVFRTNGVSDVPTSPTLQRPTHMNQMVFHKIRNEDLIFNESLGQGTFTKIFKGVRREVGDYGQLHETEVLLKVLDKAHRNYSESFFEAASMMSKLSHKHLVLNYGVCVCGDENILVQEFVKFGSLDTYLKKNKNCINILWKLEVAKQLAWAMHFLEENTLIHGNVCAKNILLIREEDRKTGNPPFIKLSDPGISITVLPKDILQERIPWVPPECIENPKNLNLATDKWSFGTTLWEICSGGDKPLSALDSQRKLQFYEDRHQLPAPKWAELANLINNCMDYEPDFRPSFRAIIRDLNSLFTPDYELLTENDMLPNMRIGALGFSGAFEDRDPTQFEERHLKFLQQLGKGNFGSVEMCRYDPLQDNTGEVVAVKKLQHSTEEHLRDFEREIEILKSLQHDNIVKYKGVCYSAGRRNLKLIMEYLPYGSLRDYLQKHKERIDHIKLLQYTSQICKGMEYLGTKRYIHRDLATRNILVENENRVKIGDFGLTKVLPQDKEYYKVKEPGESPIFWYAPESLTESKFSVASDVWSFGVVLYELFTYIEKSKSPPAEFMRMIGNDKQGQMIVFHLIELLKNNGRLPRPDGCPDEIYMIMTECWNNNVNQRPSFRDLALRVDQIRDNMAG

[11] = biological target: MERTK (UniProt Q12866); assay: as above
Sequence of MERTK (Q12866 whole entry, looked up): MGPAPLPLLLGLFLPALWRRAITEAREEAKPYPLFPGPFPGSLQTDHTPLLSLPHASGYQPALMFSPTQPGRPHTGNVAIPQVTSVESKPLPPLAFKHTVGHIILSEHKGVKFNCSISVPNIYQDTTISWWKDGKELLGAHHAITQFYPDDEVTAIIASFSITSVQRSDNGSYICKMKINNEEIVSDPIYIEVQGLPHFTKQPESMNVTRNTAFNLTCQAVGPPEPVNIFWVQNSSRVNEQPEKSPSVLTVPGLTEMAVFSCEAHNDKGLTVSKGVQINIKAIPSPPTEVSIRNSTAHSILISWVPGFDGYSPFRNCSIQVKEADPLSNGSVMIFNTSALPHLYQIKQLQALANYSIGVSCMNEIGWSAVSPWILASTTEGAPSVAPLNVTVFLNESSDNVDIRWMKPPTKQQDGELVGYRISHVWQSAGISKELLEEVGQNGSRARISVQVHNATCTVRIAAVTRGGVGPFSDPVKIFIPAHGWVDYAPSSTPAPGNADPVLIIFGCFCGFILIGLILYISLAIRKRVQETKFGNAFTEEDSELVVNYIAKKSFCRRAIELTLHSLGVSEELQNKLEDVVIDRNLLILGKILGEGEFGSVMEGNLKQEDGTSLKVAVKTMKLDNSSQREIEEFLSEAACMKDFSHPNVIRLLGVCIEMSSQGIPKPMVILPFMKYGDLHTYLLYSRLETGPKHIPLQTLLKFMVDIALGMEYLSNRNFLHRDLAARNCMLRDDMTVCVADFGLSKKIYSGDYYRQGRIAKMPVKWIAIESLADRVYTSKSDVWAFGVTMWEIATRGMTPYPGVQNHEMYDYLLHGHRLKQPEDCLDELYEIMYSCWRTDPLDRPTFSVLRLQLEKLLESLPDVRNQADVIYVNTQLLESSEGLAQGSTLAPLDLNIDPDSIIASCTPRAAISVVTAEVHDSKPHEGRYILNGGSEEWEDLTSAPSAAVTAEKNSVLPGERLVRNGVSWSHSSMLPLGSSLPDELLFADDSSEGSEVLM

[12] = tested on: c-Abl (mouse); assay: as above
[13] = tested on: c-Src; assay: as above
[14] = biological target: Grb2 SH2 (UniProt P62993); assay: SH2 binding enrichment of the phosphorylated peptide, bacterial display (enrichment ratio); higher = better substrate or ligand; peptides without Tyr show the background
Sequence of Grb2 SH2 (P62993 whole entry, looked up): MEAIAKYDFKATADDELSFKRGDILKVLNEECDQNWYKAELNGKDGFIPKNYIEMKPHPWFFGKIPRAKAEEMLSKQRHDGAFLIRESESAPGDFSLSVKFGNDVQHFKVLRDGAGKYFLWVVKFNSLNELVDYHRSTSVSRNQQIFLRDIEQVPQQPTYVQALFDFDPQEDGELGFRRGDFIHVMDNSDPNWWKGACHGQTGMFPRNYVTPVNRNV

[15] = biological target: SHP2-C SH2; assay: as above
[16] = biological target: c-Src SH2; assay: as above
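Throughout, for SH2 binding enrichment of the phosphorylated peptide, bacterial display: peptide library displayed on the E. coli surface as eCPX fusions, selected cells deep-sequenced, score is each peptide's frequency after selection divided by its frequency in the input.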
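Throughout, for phosphorylation enrichment, bacterial display: 11-residue human phosphosite peptides and single-mutation variants displayed on the E. coli surface, counted by deep sequencing, each peptide's frequency after selection divided by its frequency in the unselected input library; frequency after pTyr selection over input frequency; kinase dosed for 20-30% of maximal phosphorylation in three min.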

Sequence of EPHB1 (P54762 whole entry, looked up): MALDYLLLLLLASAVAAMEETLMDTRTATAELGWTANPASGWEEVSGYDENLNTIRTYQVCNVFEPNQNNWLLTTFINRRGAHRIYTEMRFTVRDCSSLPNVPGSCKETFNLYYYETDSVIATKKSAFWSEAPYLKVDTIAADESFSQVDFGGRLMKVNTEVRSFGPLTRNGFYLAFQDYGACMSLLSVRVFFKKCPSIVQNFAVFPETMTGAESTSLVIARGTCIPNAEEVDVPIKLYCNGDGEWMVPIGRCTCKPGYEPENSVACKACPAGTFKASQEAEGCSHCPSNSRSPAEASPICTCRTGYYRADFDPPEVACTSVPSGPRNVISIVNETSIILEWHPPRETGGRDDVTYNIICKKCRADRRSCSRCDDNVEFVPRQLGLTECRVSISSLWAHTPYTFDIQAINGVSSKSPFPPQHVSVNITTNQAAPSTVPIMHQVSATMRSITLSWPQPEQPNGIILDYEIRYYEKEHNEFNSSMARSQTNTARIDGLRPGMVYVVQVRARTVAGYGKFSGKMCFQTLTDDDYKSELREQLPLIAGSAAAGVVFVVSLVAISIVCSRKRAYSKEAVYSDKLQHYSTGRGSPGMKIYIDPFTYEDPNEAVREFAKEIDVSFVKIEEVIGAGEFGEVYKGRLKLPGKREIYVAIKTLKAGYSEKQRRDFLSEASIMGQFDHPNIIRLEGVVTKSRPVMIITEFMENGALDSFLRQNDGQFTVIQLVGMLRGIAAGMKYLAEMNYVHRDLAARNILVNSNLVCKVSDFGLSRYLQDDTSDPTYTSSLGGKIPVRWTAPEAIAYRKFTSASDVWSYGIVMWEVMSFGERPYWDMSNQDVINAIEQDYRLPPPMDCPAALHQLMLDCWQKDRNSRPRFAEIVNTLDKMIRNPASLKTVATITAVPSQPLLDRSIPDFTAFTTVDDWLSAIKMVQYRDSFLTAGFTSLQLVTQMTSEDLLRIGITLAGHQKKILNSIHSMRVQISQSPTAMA

| Sequence | phosphorylation enrichment [1] | phosphorylation enrichment [2] | phosphorylation enrichment [3] | phosphorylation enrichment [4] | phosphorylation enrichment [5] | phosphorylation enrichment [6] | phosphorylation enrichment [7] | phosphorylation enrichment [8] | phosphorylation enrichment [9] | phosphorylation enrichment [10] | phosphorylation enrichment [11] | phosphorylation enrichment [12] | phosphorylation enrichment [13] | SH2 binding enrichment [14] | SH2 binding enrichment [15] | SH2 binding enrichment [16] |
| --- | --- | --- | --- | --- | --- | --- | --- | --- | --- | --- | --- | --- | --- | --- | --- | --- |
| IKEFKYGIEEH [GJA1_Y137_K134E] | 0.836 | 0.39 | 0.464 | 0.508 | 0.684 | 0.402 | 0.918 | 0.349 | 0.42 | 0.581 | 0.342 | 0.612 | 0.365 | 0.856 | 0.489 | 0.457 |
| ILGRYYETGSI [PAX2_Y73] | 0.685 | 0.546 | 0.594 | 0.848 | 0.834 | 0.459 | 0.68 | 0.562 | 0.49 | 0.643 | 0.707 | 0.535 | 0.455 | 0.817 | 0.649 | 1.8 |
| ILTLKYLIEHG [ACTG1_Y69_P70L] | 1.05 | 0.689 | 0.618 | 0.466 | 0.839 | 0.562 | 1.32 | 0.526 | 0.557 | 1.08 | 0.463 | 0.84 | 0.483 | 1.25 | 1.03 | 0.88 |
| IQTDGDRAPEA [UHMK1_Y197_Y197D] | 1.08 | 0.636 | 0.702 | 0.602 | 0.88 | 0.595 | 1.35 | 0.466 | 0.655 | 0.96 | 0.487 | 0.79 | 0.536 | 0.762 | 1.03 | 0.427 |
| IRSGIYYKPES [L2HGDH_Y102_H98R] | 0.899 | 0.982 | 0.753 | 0.745 | 0.735 | 0.465 | 0.687 | 1.97 | 2.6 | 1.26 | 9.7 | 8.79 | 1.51 | 0.712 | 0.419 | 0.697 |
| IRTDAYVQAMT [RPE65_Y89_R91Q] | 0.543 | 0.378 | 0.471 | 0.458 | 0.503 | 0.41 | 0.644 | 0.49 | 0.608 | 0.529 | 0.374 | 0.572 | 0.446 | 0.89 | 0.662 | 0.617 |
| IRYPPYTDWNQ [ALDH3B2_Y365_H361R] | 0.781 | 0.428 | 0.494 | 0.628 | 0.612 | 0.567 | 0.826 | 0.468 | 0.464 | 0.675 | 0.429 | 0.487 | 0.418 | 0.76 | 0.76 | 0.767 |
| ISDNAYQYMLT [MYH7_Y162] | 1.51 | 0.659 | 0.496 | 3.44 | 2.15 | 9.28 | 1.23 | 0.553 | 0.577 | 1.17 | 2.15 | 0.704 | 0.975 | 0.812 | 0.873 | 1.13 |
| ISHVAYCVLGK [TRRAP_Y892_R893C] | 1.3 | 0.731 | 0.79 | 0.73 | 0.834 | 0.952 | 1.49 | 0.675 | 1.09 | 1.17 | 1.14 | 1.03 | 0.523 | 0.839 | 1.53 | 0.812 |
| IVEFAYNDKAV [PUM3_Y259_I264V_YF] | 1.09 | 0.561 | 0.632 | 0.59 | 0.767 | 0.462 | 0.938 | 0.52 | 0.573 | 0.968 | 0.527 | 0.705 | 0.547 | 0.85 | 0.787 | 0.414 |
| IVGLLYRLLTE [SETX_Y1978] | 1.29 | 0.665 | 0.672 | 0.699 | 0.937 | 0.561 | 1.35 | 0.436 | 0.596 | 1.13 | 0.71 | 0.733 | 0.539 | 2.03 | 1.37 | 1.89 |
| IVKAFYVRARA [AIPL1_Y268_YF] | 1.11 | 0.5 | 0.588 | 0.464 | 0.688 | 0.465 | 1.07 | 0.433 | 0.494 | 0.95 | 0.424 | 0.699 | 0.396 | 0.872 | 1.2 | 0.601 |
| IYRAAYFGVYD [SLC25A4_Y191] | 1.15 | 1.2 | 1.33 | 0.554 | 0.771 | 0.937 | 1.21 | 5.53 | 5.56 | 0.982 | 1.26 | 0.955 | 4.49 | 0.92 | 1.19 | 2.12 |
| KASGKYYAMKI [AKT3_Y173] | 0.499 | 0.329 | 0.411 | 0.565 | 0.536 | 0.335 | 0.563 | 0.359 | 0.529 | 0.431 | 0.455 | 0.518 | 0.399 | 1.38 | 1.21 | 1.45 |
| KASRKYYAMKI [AKT3_Y173_G171R] | 0.416 | 0.22 | 0.304 | 0.481 | 0.353 | 0.589 | 0.476 | 0.267 | 0.339 | 0.484 | 0.5 | 0.393 | 0.257 | 1.03 | 0.79 | 0.652 |
| KDIENHIQDGK [RAD50_Y964_Y964H] | 0.69 | 0.378 | 0.542 | 0.41 | 0.445 | 0.414 | 0.684 | 0.488 | 0.463 | 0.621 | 0.413 | 0.392 | 0.446 | 0.682 | 0.471 | 0.41 |
| KEDSAYGSQSV [NFKB2_Y868] | 0.978 | 0.502 | 0.521 | 0.428 | 0.584 | 0.409 | 1.07 | 0.535 | 0.583 | 1.11 | 0.454 | 0.911 | 0.502 | 0.817 | 0.756 | 0.558 |

| Sequence | phosphorylation enrichment [1] | phosphorylation enrichment [2] | phosphorylation enrichment [3] | phosphorylation enrichment [4] | phosphorylation enrichment [5] | phosphorylation enrichment [6] | phosphorylation enrichment [7] | phosphorylation enrichment [8] | phosphorylation enrichment [9] | phosphorylation enrichment [10] | phosphorylation enrichment [11] | phosphorylation enrichment [12] | phosphorylation enrichment [13] | SH2 binding enrichment [14] | SH2 binding enrichment [15] | SH2 binding enrichment [16] |
| --- | --- | --- | --- | --- | --- | --- | --- | --- | --- | --- | --- | --- | --- | --- | --- | --- |
| KEELAYLKKNH [KRT14_Y248] | 0.597 | 0.413 | 0.422 | 0.451 | 0.515 | 0.375 | 0.742 | 0.395 | 0.541 | 0.512 | 0.333 | 0.528 | 0.35 | 0.912 | 0.761 | 0.482 |
| KFVKMCDNHQL [MYO9A_Y203_Y203C_YF] | 0.483 | 0.425 | 0.384 | 0.429 | 0.45 | 0.358 | 0.603 | 0.419 | 0.42 | 0.513 | 0.378 | 0.519 | 0.441 | 0.8 | 0.795 | 0.587 |
| KGERGYPGTLG [COL4A1_Y348_P352L] | 0.597 | 0.339 | 0.439 | 0.375 | 0.484 | 0.345 | 0.505 | 0.392 | 0.448 | 0.475 | 0.403 | 0.398 | 0.337 | 0.873 | 0.537 | 0.421 |
| KHGGNYVPAPK [OSCP1_Y237] | 0.7 | 0.407 | 0.304 | 0.512 | 0.604 | 0.456 | 1.05 | 0.359 | 0.529 | 0.692 | 0.439 | 0.822 | 0.491 | 1.3 | 1.19 | 1.08 |
| KIDAKYKKKIK [WDR19_Y1230_E1235K] | 0.553 | 0.38 | 0.319 | 0.376 | 0.834 | 0.447 | 0.809 | 0.305 | 0.398 | 0.755 | 0.368 | 0.8 | 0.484 | 0.597 | 0.906 | 0.657 |
| KIIATYRLCSE [DNAH3_Y1586_V1583I] | 0.887 | 0.596 | 0.51 | 0.431 | 0.678 | 0.477 | 0.951 | 0.407 | 0.462 | 0.808 | 0.354 | 0.693 | 0.421 | 0.74 | 0.611 | 0.574 |
| KIVYVYVKKRS [DNAI2_Y7_E2K] | 1.13 | 0.577 | 0.538 | 0.531 | 0.654 | 0.514 | 1.17 | 0.515 | 0.587 | 1.17 | 0.507 | 0.758 | 0.433 | 0.745 | 0.848 | 0.537 |
| KKFFSYAWPFF [BRDT_Y291_H288Y_YF] | 1.07 | 0.505 | 0.545 | 0.515 | 0.716 | 0.488 | 0.991 | 0.555 | 0.497 | 0.92 | 1.58 | 0.611 | 0.497 | 1.34 | 1.25 | 0.982 |
| KKFVPYFDLFM [IPO5_Y530_E525K_YF] | 1.29 | 0.722 | 0.707 | 0.79 | 0.898 | 0.53 | 1.35 | 0.479 | 0.571 | 1.14 | 0.645 | 0.773 | 0.526 | 1.58 | 0.831 | 0.878 |
| KKHIPYRQHKS [CSNK1G2_Y206_E208Q] | 2.09 | 2.12 | 1.36 | 1.28 | 3.67 | 2.37 | 3.45 | 1.08 | 1.56 | 4.52 | 1.07 | 3.26 | 1.34 | 2.07 | 1.84 | 1.79 |
| KKMEVYQSIAD [MYBPC3_Y548_L545M] | 0.927 | 0.745 | 0.627 | 0.719 | 0.681 | 0.508 | 1.04 | 0.943 | 1.47 | 1.04 | 0.451 | 0.764 | 0.91 | 0.775 | 0.576 | 1.28 |
| KLFFIYTSGTT [SLC27A4_Y245_YF] | 1.16 | 0.633 | 0.646 | 0.531 | 0.813 | 0.529 | 1.19 | 0.435 | 0.424 | 1.1 | 0.398 | 0.967 | 0.345 | 0.801 | 0.664 | 0.478 |
| KLKRSYSSPDI [USP8_Y717] | 0.552 | 0.376 | 0.688 | 0.365 | 0.461 | 0.38 | 0.613 | 0.322 | 0.379 | 0.524 | 0.43 | 0.412 | 0.396 | 0.698 | 0.649 | 0.413 |
| KLLRLYAVVTR [LYN_Y306_V303L] | 0.997 | 0.982 | 0.594 | 0.409 | 0.644 | 0.51 | 1.04 | 0.451 | 0.468 | 1.05 | 0.581 | 0.918 | 0.544 | 1.12 | 2.42 | 1.21 |
| KLNNEYLELNF [MME_Y497_YF] | 1.16 | 0.844 | 0.715 | 4.77 | 3.38 | 0.552 | 1.04 | 0.757 | 1.06 | 1.1 | 0.503 | 0.778 | 0.843 | 0.722 | 0.751 | 0.488 |
| KLQKKYGPISS [CYP17A1_Y60_Y64S] | 0.381 | 0.32 | 0.317 | 0.338 | 0.493 | 0.289 | 0.553 | 0.343 | 0.375 | 0.364 | 0.378 | 0.399 | 0.364 | 0.873 | 0.594 | 0.554 |
